# Measurements reported in patent US20230279079A1 (CHANG GUNG MEMORIAL HOSPITAL LINKOU, published 2023).
# Positions count from the first letter of the chain named.
# B1: EZ 9A (antibody, V domains shown)
# VH: EVQLVESGGGLVQPGESLRVSCAASGFTFSNYWMHWVRQVPGKGPVWVSIINTDGSITRYVDSVRGRFTISRDNAKNTVHLQMNSLTAEDTAIYYCARDVNRYPDYWGQGTLVTVSS
# VL: QSALTQPASVSGSPGQSITISCTGTYSDVGYYNYVSWYQQQPGKAPKVIIHGDINRPFGVSNRFSGSKSGNTASLTISGLQAEDEADYFCCSYVNNGAWVFGGGTKLTVL
# B2: EZ 7A (antibody, V domains shown)
# VH: EVQLVESGAEVKKPGESLKISCKGSGYSFTSYWIGWVRQMPGKGLEWMGIIYPGDSDTRYSPSFQGQVTISADKSISTAYLQWSSLKASDTAMYYCARGWVYRGFPYYGMDVWGQGTMVTVSS
# VL: QSALTQPRSVSGSPGQSVTISCTGTSSDVGGYNYVSWYQQHPGKAPKLMIYDVSKRPSGVPDRFSGSKSGNTASLTISGLQAEDEADYYCCSYAGSYTLVFGGGTKLTVL
# B3: FN 12A (antibody, V domains shown)
# VH: QVQLVQSGAEVKKPGSSVKVSCKASGGTFSSYAISWVRQAPGQGLEWMGRIIPILGIANYAQKFQGRVTITADKSTSTAYMELSSLRSEDTAVYYCARSGCSSTSCPSNLYYYYYGMDVWGQGTTVTVSS
# VL: QSVLTQPPSVSAAPGQKVTISCSGSSSNIGNNYVSWYQQLPGTAPKLLIYDNNKRPSGIPDRFSGSKSGTSATLGITGLQTGDEADYYCGTWDSSLSALVFGGGTKLTVL
# B4: EZ 11C (antibody, V domains shown)
# VH: EVQLVESGAEVKKPGASVKVSCKVSGYTLTELSMHWVRQAPGKGLEWMGGFDPEDGETIYAQKFQGRVTMTEDTSTDTAYMELSSLRSEDTAVYYCATTTVTTPTANWFDPWGQGTLVTVSS
# VL: B3 VL with V3A, D51E, S97R, A98Q, L99V
# B5: EZ 9C (antibody, V domains shown)
# VH: EVQLVESGGGLVQPGGSLRLSCSASGFTLNGYAMHWVRQAPGKGLEYVSSLSNRGDNTRYAESVKGRFLISRDIAKDTLYLQMSSLRPEDTAVYYCGKGLLSASGGLPIDDWGQGTLVTVSS
# VL: B3 VL with L40F, D86A, G90A, L99G, T105A
# B6: FM 7B (antibody, V domains shown)
# VH: EVQLVQSGAEVKKPGASVKVSCKASGYTFTSYAMHWVRQAPGQRLEWMGWINTGNGNTKYSQKFQGRVTITRDTSASTAYMELSSLRSEDTAVYYCARDPTYCSSTSCYPFSWFDPWGQGTLVTVSS
# VL: NFMLTQPPSVSVAPGQTARITCGGNNIGSKSVHWYQQKPGQAPVLVVYDDSDRPSGIPERFSGSNSGNTATLTISRVEAGDEADYYCQVWDSTGDHSWVFGGGTKLTVL
# B7: EY 9C (antibody, V domains shown)
# VH: EVQLVESGGGLVKPGGSLRLSCAASEFTFSSYTLNWVRQAPGKGLEWVSSISTSSAYIYYADSVKGRFTISRDNAKKSLSLQMNSLTAEDTAVYYCATWGGAPFDYWGQGTMVTVS
# VL: QSVLTQPASVSGSPGRSITISCTETSSDVGTYNLVSWYQQHPGKAPKLMIFDDNKRPSGVSNRFSGSKSGNTASLTISGLQAEDEADYYCCSYAGGRTFNVLFGGGTKLTVL
# B8: EW 1A (antibody, V domains shown)
# VH: EVQLVESGGGVVQPGSSLRLSCETSGFTFSGHAMHWVRQAPGKGLEWLAQIWFDGSEKYYADSVKGRFTISRDNSKKILYMQMNSLRVQDTAVYYCARDGQHLAPFAMDVWGQGTMVTVSS
# VL: QSVLTQPASVSGSPGQSITISCTGTSSDVGASNRVSWYQHSPGEAPKLIIYQVTVRPSGVSDRFSGSKSGNTASLTISGLRTEDEAEYYCNSFVSGDSWVFGGGTKVTVL
# B9: EZ 11A (antibody, V domains shown)
# VH: EVQLVESGGGLVQPGGSLRLSCAASGFTFSSYWMSWVRQAPGKGLEWVANIKQDGSEKYYVDSVKGRFTISRDNAKNSLYLQMNSLRAEDTAVYYCARDDYSGSYYWEFDYWGQGTLVTVSS
# VL: QPVLTQSPSASASLGASVKLTCTLSSGHSSYAIAWHQQQPEKGPRYLMKLNSDGSHSKGDGIPDRFSGSSSGAERYLTISSLQSEDEADYYCQTWGTGIWVFGGGTKLTVL
# B10: FJ 10B (antibody, V domains shown)
# VH: QVQLVQSGAEVKKPGESLRISCKGSGYSFTSYWISWVRQMPGKGLEWMGRIDPSDSYTNYSPSFQGHVTISADKSISTAYLQWSSLKASDTAMYYCARLDPRYGPDYYGMDVWGQGTTVTVSS
# VL: AIRMTQSPSSLSASVGDRVTITCRASQSISSYLNWYQQKPGKAPKLLIHAASSLQSGVPSRFSGSGSGTDFTLTMSSLQPEDFATYYCQQSYSTPLTFGGGTKVEIR
# B11: FI 4A (antibody, V domains shown)
# VH: EVQLVESGGGLVKPGGSLRLSCAASGFTFSRFSMNWVRQAPGKGLEWVSSISSSGSYIYFADSVKGRFTISRDNAKNSLYLQMNSLRAEDTAIYYCATYLFGDSHTYWGQGTLVTVSS
# VL: QSVLTQPHSVSESPGKTVTISCTGSSGSIASNYVQWYQQRPGSAPTTVIYEDNQRPSGVPDRFSGSIDSSSNSASLTISGLKTEDEADYYCQSYDSSNLHWVFGGGTKLTVL
# B12: EY 12B (antibody, V domains shown)
# VH: EVQLVESGGDLVQPGRSLRLSCAASGFTFDYFAMHWVRQVPGKGLEWVSGIRWNSETIGYADSVKGRFTISRDNAKKSLYLEMNSLRSEDTAFYYCAKGRSGYGHTAFDVWGQGTMVTVSS
# VL: QSALTQPPSVSGAPGQRVTISCTGSSSNIGANYDVHWYQRLPGTAPKLLIYDNNNRPSGVPDRFSGSKSGTSASLAIAGLQAEDEADYYCQSYDSSLSASVFGGGTKLTVL
# B13: EW 9A (antibody, V domains shown)
# VH: EVQLLESGGGVVQPGRSLRLSCAASGFTFSSYGMHWVRQAPGKGLEWVAVIWYDGSNKYYADSVKGRFTISRDNSKNTLYLQMNSLRAEDTAVYYCAKDMWALYDILTGYYTPYYYYGMDVWGQGTTVTVSS
# VL: SYELTQPPSVSVSPGQTARITCSADALPKQYAYWYQQKPGQAPVLVIYKDSERPSGIPERFSGSSSGTTVTLTISGVQAEDEADYYCQSADSSGTYWVFGGGTKLTVL
# B14: FD 4C (antibody, V domains shown)
# VH: EVQLVESGPGLVKPSQTLSLTCTVSGGSISSGGYYWSWIRQHPGKGLEWIGYIYYSGSTYYNPSLKSRVTISVDTSKNQFSLKLSSVTAADTAVYYCARVRSSSSWYFDYWGQGTLVTVSS
# VL: QSVLTQPASVSGSPGQSITISCTGTSSDVGGYNYVSWYQQHPGKAPKLMIYDVSKRPSGVSNRFSGSKSGNTASLTISGLQAEDEADYYCSSYTSKWVFGGGTKLTVL
# B15: EZ 9B (antibody, V domains shown)
# VH: not shown
# VL: SYELTQPPSVSVAPGQTARITCGGNNIGSKSVHWYQQKPGQAPVLVVYDDSDRPSGIPERFSGSNSGNTATLTISRVEAGDEADYYCQVWDSSSDHPSWVFGGGTKLTVL
# B16: FD 5B (antibody, V domains shown)
# VH: not shown
# VL: QSVLTQPPSASGSPGQSVTISCTGTSSDAGGYNYVSWYQQHPGKAPKLMIYEVSKRPSGVPDRFSGSKSGNTASLTVSGLQAEDEADYYCSSYAGSNNPFVFGTGTKVTVL
# B17: EW 10C (antibody, V domains shown)
# VH: EVQLVESGGGLVQPGGSLRLSCAASGFTFNKYKMTWVRQAPGKGLEWVANIKEDGSEKNYVDSVKGRFTISRDNARNSVYMHLNNLRVEDTAVYYCARGRTLGDWGQGTTVTVSS
# VL: AIRMTQSPLSLPVTLGQPASISCRSSQSLVHSDGNTYLNWFQQRPGQSPRRLIYKVSNRDSGAPDRFSGSGSGTDFTLKISRVEAEDVGVYYCMQGTHWPPITFGPGTKVDIK
# B18: EW 5A (antibody, V domains shown)
# VH: EVQLVESGGGLVQPGGSLRLSCSVSGFPFGTYAMHWVRQAPGKGLDYVSAINNDGSITYYADSVRGRFTVSRDNSENTLYLRLSGLRPDDTAIYYCVKDRGSVIRDFDVWGRGTLVTVSS
# VL: QTVVTQEPSLTVSPGGTVTLTCASSTGTVTSDYYPNWFQQKPGQAPRPLIFGTAYRHSWTPARFSGSLLGGKAALTVSDVQPEDEADYYCLLYCGGGQLFGGGTKLTVL
# B19: EZ 8C (antibody, V domains shown)
# VH: EVQLVESGGGLVKPGGSLRLSCAASGFTFSSYTMNWVRQAPGKGLEWVSSFIANSDYKFYADSVKGRFTISRDNAKSSLYLQMNSLRAEDTAVYYCARELTSYGSHDAFDIWGQGTMVTVSS
# VL: QSALTQPASVSGSPGQSITISCTGTSSDVGGYNYVSWYQQHPGKAPKLLIYEVTNRPSGVSDRFSGSKSANVASLTISGLQAEDEADYYCSSYTTTDSVVFGGGTKLTVL
# B20: EY 12A (antibody, V domains shown)
# VH: EVQLVESGPGLVKPSQTLSLTCAVSGGSISSGGYYWSWIRQPPGKGLELIGYTDYTGKTLYNPSLKSRLTISVDTSKNQFSLKLRSVTAADTAVYYCARGMTQDDILTGFNRPHWYFDLWGRGSLVTVSS
# VL: QSVLTQPPSVSGAPGQRVTISCTGSSSNIGAGYDVHWYQQLPGTAPKVVIYRNMNRPSGVPDRFSGSKSGTSASLAITGLQAEDEADYYCQSFDSSLSDFVVFGGGTKLTVL
# Columns and labels:
# [1] = molecular target: T1, SARS-CoV-2 nucleocapsid protein (SARS-CoV-2, UniProt P0DTC9 1-419); test: ELISA on recombinant protein
# T1 construct: also called N protein
# [2] = molecular target: T2, SARS-CoV-2 spike S2 subunit (SARS-CoV-2, UniProt P0DTC2 686-1213); test: ELISA
# T2 construct: domain: S2 subunit
# SARS spike S1 subunit = molecular target: T3, SARS spike S1 subunit (severe acute respiratory syndrome …, UniProt P59594 14-667); test: ELISA
# T3 construct: domain: S1 subunit
# [3] = molecular target: T4, MERS spike extracellular domain (Middle East respiratory syndrome …, UniProt K9N5Q8 18-1296); test: ELISA
# T4 construct: extracellular domain
# [4] = molecular target: T5, Human coronavirus OC43 spike extracellular domain (human coronavirus OC43, UniProt P36334 14-1297); test: ELISA
# T5 construct: extracellular domain
binder,measurement,setting,value
B1,binding result,[1],binds
B2,binding result,[2],no binding
same,binding result,SARS spike S1 subunit,binds
same,binding result,[3],binds
B3,binding result,[2],no binding
same,binding result,SARS spike S1 subunit,binds
same,binding result,[3],binds
same,binding result,[4],binds
B4,binding result,[1],binds
B5,binding result,[1],binds
B6,binding result,[2],no binding
same,binding result,SARS spike S1 subunit,binds
same,binding result,[3],no binding
same,binding result,[4],no binding
B7,binding result,[1],binds
B8,binding result,[1],binds
B9,binding result,[1],binds
B10,binding result,[2],no binding
same,binding result,SARS spike S1 subunit,binds
same,binding result,[3],no binding
same,binding result,[4],no binding
B11,binding result,[2],no binding
same,binding result,SARS spike S1 subunit,no binding
same,binding result,[3],no binding
same,binding result,[4],no binding
B12,binding result,[1],binds
B13,binding result,[1],binds
B14,binding result,[1],binds
B15,binding result,[1],binds
B16,binding result,[1],binds
B17,binding result,[1],binds
B18,binding result,[1],binds
B19,binding result,[1],binds
B20,binding result,[1],binds
